The target of assay [1] is T1, Full-length bovine RIα (bovine, UniProt P00514 1-380).
T1 construct: mature; given as full-length
Put plainly: fluorescence anisotropy, labeled peptide. As for the experimental part:
(§1) Binding of each fluorescently labeled peptide to the regulatory subunits was monitored using fluorescence anisotropy. RIα and RIIα were serially diluted beginning at 1 μM and 0.1 μM, respectively, into 10 mM HEPES pH 7.4, 0.15 M NaCl, 3 mM EDTA, 0.005% Surfactant P20 (Biacore) containing either 10 nM or 1 nM of fluorescently labeled peptide for RIα and RIIα, respectively. The samples were equilibrated for at least 1 hour at room temperature and fluorescence anisotropy monitored using a Fluoromax-2 (Jobin Yvon Horiba, SPEX Division, Edison, N.J.) equipped with Glan-Thompson polarizers. The rhodamine-labeled peptide was excited at 541 nm (5-10 nm bandpass) and emission monitored at 575 nm (5-10 nm bandpass). The anisotropy was calculated directly with the Fluoromax software using the following equation: […]
(§2) Several additional truncated and substituted peptides were synthesized and their affinity to RIα and RIIα evaluated using fluorescence anisotropy (see Table 8). Binding was evaluated for both RIα and RIIα0 using fluorescence anisotropy as described herein. Substituted residues are in bold Table 8. Tryptophan at a position corresponding to residue 21 of SEQ ID NO:2 is important for discriminating against binding to the RIIα subunit.
Background: In fluorescence polarisation assays a small probe gives low polarisation when free and higher when bound to something large.

In assay [2] the target is T2, Full-length murine RIIα (murine, UniProt P12367 2-401).
T2 construct: mature; given as full-length
T2 sequence (P12367 2-401): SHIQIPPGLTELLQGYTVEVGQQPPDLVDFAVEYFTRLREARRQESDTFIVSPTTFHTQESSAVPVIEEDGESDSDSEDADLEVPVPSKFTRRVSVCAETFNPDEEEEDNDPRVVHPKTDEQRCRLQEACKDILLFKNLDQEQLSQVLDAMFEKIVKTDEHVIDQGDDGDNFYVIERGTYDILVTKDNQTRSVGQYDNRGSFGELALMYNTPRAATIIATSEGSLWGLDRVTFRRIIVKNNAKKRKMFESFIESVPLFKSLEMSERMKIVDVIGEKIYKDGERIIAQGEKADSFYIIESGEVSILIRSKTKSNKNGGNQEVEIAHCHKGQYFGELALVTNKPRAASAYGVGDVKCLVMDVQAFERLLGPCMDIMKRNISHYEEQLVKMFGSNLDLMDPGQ
Put plainly: fluorescence anisotropy, labeled peptide. As for the experimental part:
as §1, §2

The target in a further assay is T3, PKA-RIIα-GFP (UniProt P42212 1-238 = GFP).
T3 construct: it may be the same construct as m8; also called PKA-RIIa-GFP
Nature of the assay: SPOT membrane, anti-GFP detection. As for the experimental part:
Substitution analysis of both allelic peptides ([…]; SEQ ID NO:2 and […]; SEQ ID NO:1) was conducted. Each amino acid of the 27-mer peptide was substituted, one amino acid at a time per peptide, by any naturally occurring L- and D- amino acid. For both peptides complete L- and D- substitution analysis membranes have been screened for binding of PKA-RIα-GFP. After regeneration, the peptide arrays were incubated with PKA-RIIα-GFP. After binding, detection was carried out with an anti-GFP antibody in combination with a peroxidase-labeled secondary antibody.

The next assay addresses T4, GFP-RIIα D/D (mouse, UniProt P12367 1-46).
T4 construct: range 1-46; His tag cleaved with thrombin; also called GFP-RII D/D; D/D domain of mouse RIIα (residues 1-46) fused to GFP; not shown: green fluorescent protein (GFP)
Put plainly: SPOT peptide array, anti-GFP detection.

The target of another assay is T5, GFP-RIα D/D (bovine, UniProt P00514 1-109).
T5 construct: range 1-109; His tag cleaved with thrombin; also called dimerization/docking (D/D) domain of bovine RIα (residues 1-109) fused to GFP; not shown: green fluorescent protein (GFP)
T5 sequence (P00514 1-109): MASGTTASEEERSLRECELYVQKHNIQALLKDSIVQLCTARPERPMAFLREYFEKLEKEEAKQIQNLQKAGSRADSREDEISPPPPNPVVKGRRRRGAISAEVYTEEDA
Put plainly: SPOT peptide array, anti-GFP detection.

The target of assay [3] is T1, Full-length bovine RIα. Put plainly: fluorescence anisotropy, labeled peptide with increasing full-length RIα; the concentration on the axis is that of the protein. On the procedure: as §1
(§3) The binding affinities of three peptides designated RIIα-specific (A13L; SEQ ID NO:109), RIα-specific (Q9F, V21W, and M25F; SEQ ID NO:103) and null (A17E and V21W; SEQ ID NO:110) were compared with the unsubstituted peptide (FIG. 2 and Table 7) using fluorescence anisotropy. […] The null peptide bound very poorly to RIα and binding to RIIα could not be detected (FIG. 2).

Assay [4] deals with T1, Full-length bovine RIα. Put plainly: fluorescence anisotropy, labeled peptide, n = 3. As for the experimental part:
as §1, §3

In assay [5] the target is T2, Full-length murine RIIα. Nature of the assay: fluorescence anisotropy, labeled peptide, n = 3. On the procedure:
as §1, §3

Assay [6] addresses T1, Full-length bovine RIα. Nature of the assay: fluorescence anisotropy.
The target of assay [7] is T2, Full-length murine RIIα. Put plainly: fluorescence anisotropy, labeled peptide with increasing full-length RIIα; the concentration on the axis is that of the protein. As for the experimental part:
as §1, §3

Assay [8] deals with T6, RIα isoform of the PKA regulatory subunit (Bos taurus (Bovine), UniProt P00514 2-380).
T6 construct: also called R1α; PKA-RIα
T6 sequence (P00514 2-380 limits assumed): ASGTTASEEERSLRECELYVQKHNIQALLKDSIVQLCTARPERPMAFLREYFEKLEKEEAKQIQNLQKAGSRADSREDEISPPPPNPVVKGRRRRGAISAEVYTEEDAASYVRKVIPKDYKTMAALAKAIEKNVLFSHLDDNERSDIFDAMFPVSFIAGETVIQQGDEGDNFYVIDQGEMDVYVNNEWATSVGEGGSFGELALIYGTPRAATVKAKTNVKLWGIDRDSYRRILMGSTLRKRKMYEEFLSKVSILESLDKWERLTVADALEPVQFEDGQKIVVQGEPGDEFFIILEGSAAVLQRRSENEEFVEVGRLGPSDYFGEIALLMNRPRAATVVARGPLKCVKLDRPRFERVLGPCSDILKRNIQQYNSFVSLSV
Put plainly: fluorescence anisotropy.

Ends that are not written are not given here.

T1 sequence (P00514 whole entry): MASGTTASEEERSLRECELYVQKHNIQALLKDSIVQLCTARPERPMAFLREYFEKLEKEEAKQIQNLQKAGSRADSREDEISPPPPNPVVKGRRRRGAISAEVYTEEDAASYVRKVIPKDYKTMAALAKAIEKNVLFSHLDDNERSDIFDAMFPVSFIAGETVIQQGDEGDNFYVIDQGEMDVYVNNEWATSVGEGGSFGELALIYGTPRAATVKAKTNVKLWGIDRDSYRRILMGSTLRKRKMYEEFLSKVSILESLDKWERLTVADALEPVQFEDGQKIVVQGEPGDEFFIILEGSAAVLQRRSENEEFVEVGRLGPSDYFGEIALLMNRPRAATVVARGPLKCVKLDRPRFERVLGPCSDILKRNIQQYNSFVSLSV
T4 sequence (P12367 1-46): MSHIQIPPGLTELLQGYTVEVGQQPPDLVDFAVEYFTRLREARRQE

B1: SEQ ID NO:112 peptide Ac-DLAWKIAKMIVSDVMQQC, rhodamine-labeled (peptide)
peptide: Ac-DLAWKIAKMIVSDVMQQC(tetramethylrhodamine‑5‑maleimide)-NH2
Broadly, the Kd is a measure of binding affinity in units of concentration. High values mean lower affinity, low ones higher affinity. Take B1: the figures for the Kd with Full-length bovine RIα [1] and with Full-length murine RIIα [2] were 773 nM and 107 nM, respectively.

B2: VQGNTDEAQEELAWKIAKMIVSDIMQQ (SEQ ID NO:1), cellulose-bound (peptide)
peptide: VQGNTDEAQEELAWKIAKMIVSDIMQQ
modifications: also: cellulose-bound
notes: also called Ile variant 27-mer; I24 peptide
As for B2, in the assay with PKA-RIIα-GFP, the “fold signal intensity against PKA-RIα-GFP” value is approximately 10 fold. For the same molecule, the binding result in the assay with GFP-RIIα D/D and with GFP-RIα D/D was “binds” each time.

B3: AKB (RI), RI specific (SEQ ID NO:103) FEELAWKIAKMIWSDVFQQC, rhodamine-labeled (peptide)
peptide: FEELAWKIAKMIWSDVFQQC(tetramethylrhodamine‑5‑maleimide)-NH2
notes: also called PV-38; RIα-specific (Q9F, V21W, M25F)
The EC50 (read off the curve) is the midpoint of the concentration-response curve. A higher EC50 (read off the curve) goes with weaker potency. In the case of B3, the “EC50 (read off the curve)” value with Full-length bovine RIα [3] was approximately 10 nM; with Full-length murine RIIα [7] it was approximately 500 nM. For the same molecule, the Kd with Full-length bovine RIα [4] is 5.2 nM; in the assay with Full-length murine RIIα [5] it was 456 nM; with Full-length bovine RIα [1], 5.2 nM; with Full-length murine RIIα [2], 456 nM. Besides, the “fold enhancement of binding against the unsubstituted peptide” value with Full-length bovine RIα [6] came out at 10 fold.

B4: PV-49 (SEQ ID NO:107) FEELAWKIAKMIISDVFQQC, rhodamine-labeled (peptide)
peptide: FEELAWKIAKMIISDVFQQC(tetramethylrhodamine‑5‑maleimide)-NH2
Turning to B4, the Kd was found to be 1.1 nM with Full-length bovine RIα [1] and 2.5 nM in the assay with Full-length murine RIIα [2].

B5: PV-37 (SEQ ID NO:104) FEELAWKIAKMIWSDVMQQC, rhodamine-labeled (peptide)
peptide: FEELAWKIAKMIWSDVMQQC(tetramethylrhodamine‑5‑maleimide)-NH2
Consider B5, for which the Kd with Full-length bovine RIα [1] is 19 nM; with Full-length murine RIIα [2] it was 150 nM.

B6: PV-48 (SEQ ID NO:106) QEEFAWKIAKMIISDVFQQC, rhodamine-labeled (peptide)
peptide: QEEFAWKIAKMIISDVFQQC(tetramethylrhodamine‑5‑maleimide)-NH2
On to B6, for which the Kd with Full-length bovine RIα [1] came out at 12 nM; with Full-length murine RIIα [2] it was 124 nM.

B7: PV-47 (SEQ ID NO:105) QEEFAWKIAKMIVSDVFQQC, rhodamine-labeled (peptide)
peptide: QEEFAWKIAKMIVSDVFQQC(tetramethylrhodamine‑5‑maleimide)-NH2
For B7, the Kd was 39 nM with Full-length bovine RIα [1] and 89 nM with Full-length murine RIIα [2].

B8: VQGNTDEAQEELAWKIAKMIVSDVMQQ (SEQ ID NO:2), cellulose-bound (peptide)
peptide: VQGNTDEAQEELAWKIAKMIVSDVMQQ
modifications: also: cellulose-bound
notes: also called Val variant 27-mer; V24 peptide
Consider B8, for which the “fold signal intensity against PKA-RIα-GFP” value with PKA-RIIα-GFP was approximately 10 fold.

B9: AKB (dual), WT (SEQ ID NO:108) VQGNTDEAQEELAWKIAKMIVSDVMQQC, rhodamine-labeled (peptide)
peptide: VQGNTDEAQEELAWKIAKMIVSDVMQQC(tetramethylrhodamine‑5‑maleimide)-NH2
notes: also called unsubstituted peptide
Take B9: the “EC50 (read off the curve)” value with Full-length bovine RIα [3] is approximately 50 nM; with Full-length murine RIIα [7], approximately 3 nM. For the same molecule, the Kd with Full-length bovine RIα [4] turned out to be 48 nM; with Full-length murine RIIα [5], 2.2 nM; with Full-length bovine RIα [1] it was 48 nM; in the assay with Full-length murine RIIα [2] it was 2.2 nM. Further, the “fold increase in binding affinity against the Ile variant” value in [8] is approximately 3 fold.

B10: AKB (null) (SEQ ID NO:110) VQGNTDEAQEELAWKIEKMIWSDVMQQC, rhodamine-labeled (peptide)
peptide: VQGNTDEAQEELAWKIEKMIWSDVMQQC(tetramethylrhodamine‑5‑maleimide)-NH2
notes: also called null peptide (A17E and V21W)
With B10, the Kd with Full-length bovine RIα [4] was 998 nM; in the assay with Full-length murine RIIα [5], more than 10000 nM.

B11: SEQ ID NO:111 peptide (. . . QEELAWKIAKMIWSDVMQQC), rhodamine-labeled (peptide)
peptide: VQGNTDEAQEELAWKIAKMIWSDVMQQC(tetramethylrhodamine‑5‑maleimide)-NH2
notes: also called single mutant V21W
For the molecule B11, the figures for the Kd with Full-length bovine RIα [1] and with Full-length murine RIIα [2] were 120 nM and 83 nM, respectively.

B12: AKB (RII), RII specific (SEQ ID NO:109) VQGNTDEAQEELLWKIAKMIVSDVMQQC, rhodamine-labeled (peptide)
peptide: VQGNTDEAQEELLWKIAKMIVSDVMQQC(tetramethylrhodamine‑5‑maleimide)-NH2
notes: also called RIIα-specific (A13L)
As to B12, the Kd with Full-length bovine RIα [4] turned out to be 2490 nM; in the assay with Full-length murine RIIα [5], 2.7 nM. In addition, the “EC50 (read off the curve)” value with Full-length murine RIIα [7] was approximately 3 nM.

The record behind these values is patent US20030232420A1 (SEQUENOM, published 2003).
